Values joined by “and” are separate entries in the source; they are usually repeats but may differ in a detail not shown here. Identical values can stand only once. Like-named read-outs stand apart in the source and are kept apart here.

The target of assay [1] is T1, FoxA, TonB-dependent ferrioxamine B transporter from Pseudomonas aeruginosa PAO1 (full-length) (Pseudomonas aeruginosa strain PAO1, UniProt Q9I116 1-820).
T1 sequence (looked up): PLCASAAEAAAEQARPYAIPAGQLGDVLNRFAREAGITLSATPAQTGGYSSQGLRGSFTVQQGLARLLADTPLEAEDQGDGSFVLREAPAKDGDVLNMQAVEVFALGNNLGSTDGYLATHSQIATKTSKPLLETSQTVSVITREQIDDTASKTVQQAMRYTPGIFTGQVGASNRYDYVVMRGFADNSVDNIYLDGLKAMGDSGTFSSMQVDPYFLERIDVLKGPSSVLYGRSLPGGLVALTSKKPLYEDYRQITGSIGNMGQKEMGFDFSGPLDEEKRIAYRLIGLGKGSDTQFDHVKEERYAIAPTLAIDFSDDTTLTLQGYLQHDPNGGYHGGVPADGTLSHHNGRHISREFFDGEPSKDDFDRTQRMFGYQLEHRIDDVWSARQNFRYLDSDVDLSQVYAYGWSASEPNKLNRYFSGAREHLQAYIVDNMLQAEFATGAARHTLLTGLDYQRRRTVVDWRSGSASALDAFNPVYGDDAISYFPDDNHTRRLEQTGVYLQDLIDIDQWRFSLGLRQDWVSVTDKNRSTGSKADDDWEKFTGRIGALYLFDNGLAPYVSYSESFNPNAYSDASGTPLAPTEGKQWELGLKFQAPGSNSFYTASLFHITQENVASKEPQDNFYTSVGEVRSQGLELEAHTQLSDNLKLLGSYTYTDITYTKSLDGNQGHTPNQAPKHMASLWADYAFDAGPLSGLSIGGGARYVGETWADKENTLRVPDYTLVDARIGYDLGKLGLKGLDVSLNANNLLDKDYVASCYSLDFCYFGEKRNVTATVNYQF
In words: ITC. (In general: ITC needs no label: the signal is the heat of the interaction.)

In assay [2] the target is T1, FoxA, TonB-dependent ferrioxamine B …. Kind of assay: ITC. The source holds these as a separate data set.

B1: C-terminal domain of TonB1 from Pseudomonas aeruginosa PAO1 (residues 251-340) (domain or fragment, Pseudomonas aeruginosa strain PAO1, UniProt Q51368 251-340, looked up)
chain: DSDIKPLRMDPPVYPRMAQARGIEGRVKVLFTITSDGRIDDIQVLESVPSRMFDREVRQAMAKWRFEPRVSGGKIVARQATKMFFFKIEK
B1: in assay [1], the Kd is 107 ± 30 nM and the dH was -11 ± 0.3 kcal/mol. Besides, in assay [2], the Kd is 6 nM and 6 to 10 nM; the dH is -19.2 ± 0.4 kcal/mol.

A word on the Kd: it is the equilibrium constant for the complex coming apart.

The values above are taken from paper doi:10.1101/621219 (bioRxiv, 2019).
